Measurements as given in the Immune Epitope Database (IEDB).
Values belong to the sequence of their own block, whether it stands above or below them.

Key:
HLA-A*01:01 [1] = test: IEDB peptide-MHC binding, purified MHC/direct/fluorescence; filed as Kd, often an IC50 or EC50 that approximates it; ≥ and ≤ were set here for values at or beyond the usual limits of such assays
HLA-A*03:01 = test: as above; details: source organism: Camelpox virus M-96
HLA-A*11:01 [2] = test: as above; details: source organism: Camelpox virus M-96
HLA-A*31:01 [3] = test: as above; details: source organism: Camelpox virus M-96
HLA-A*69:01 = test: as above
HLA-B*07:02 = test: as above
HLA-B*40:01 = test: as above
HLA-B*46:01 = test: as above
HLA-B*48:01 [4] = test: as above
HLA-B*57:01 = test: as above
HLA-B*58:01 = test: as above
HLA-A*02:01 [5] = test: IEDB peptide-MHC binding, purified MHC/competitive/fluorescence; filed as Kd, often an IC50 or EC50 that approximates it; ≥ and ≤ were set here for values at or beyond the usual limits of such assays
HLA-A*02:06 = test: as above; details: source organism: Vaccinia virus Copenhagen
HLA-A*26:02 [6] = test: as above; details: source organism: Vaccinia virus Copenhagen
HLA-A*26:03 [7] = test: as above; details: source organism: Vaccinia virus Copenhagen
HLA-A*68:02 [8] = test: as above
HLA-B*08:01 = test: as above; details: source organism: Vaccinia virus Copenhagen
HLA-B*15:01 [9] = test: as above; details: source organism: Vaccinia virus Copenhagen
HLA-B*15:17 [10] = test: as above; details: source organism: Vaccinia virus Copenhagen
HLA-B*18:01 = test: as above; details: source organism: Vaccinia virus Copenhagen
HLA-C*07:02 = test: IEDB peptide-MHC binding, purified MHC/direct/fluorescence; filed as Kd, often an IC50 or EC50 that approximates it; ≥ and ≤ were set here for values at or beyond the usual limits of such assays
HLA-A*32:07 = test: IEDB peptide-MHC binding, purified MHC/competitive/fluorescence; filed as Kd, often an IC50 or EC50 that approximates it; ≥ and ≤ were set here for values at or beyond the usual limits of such assays; details: source organism: Mycobacterium tuberculosis C
HLA-B*15:42 = test: as above; details: source organism: Mycobacterium tuberculosis C
HLA-B*27:20 = test: as above; details: source organism: Mycobacterium tuberculosis C
HLA-B*45:06 = test: as above; details: source organism: Mycobacterium tuberculosis C
HLA-B*83:01 = test: as above; details: source organism: Mycobacterium tuberculosis C
HLA-A*26:02 [11] = test: IEDB peptide-MHC binding, purified MHC/direct/fluorescence; filed as Kd, often an IC50 or EC50 that approximates it; ≥ and ≤ were set here for values at or beyond the usual limits of such assays; details: source organism: Bacillus cereus NVH0597-99
HLA-A*26:03 [12] = test: as above
HLA-B*08:02 = test: as above; details: source organism: Bacillus cereus NVH0597-99
HLA-B*08:03 = test: as above
HLA-B*15:17 [13] = test: as above
HLA-B*27:05 [14] = test: as above; details: source organism: Bacillus anthracis
HLA-A*11:01 [15] = test: IEDB peptide-MHC binding, purified MHC/competitive/fluorescence; filed as Kd, often an IC50 or EC50 that approximates it; ≥ and ≤ were set here for values at or beyond the usual limits of such assays; details: source organism: Bacillus anthracis str. A0488
HLA-A*30:01 = test: as above
HLA-A*31:01 [16] = test: as above; details: source organism: Bacillus anthracis str. A0488
HLA-A*02:01 [17] = test: IEDB peptide-MHC binding, purified MHC/direct/fluorescence; filed as Kd, often an IC50 or EC50 that approximates it; ≥ and ≤ were set here for values at or beyond the usual limits of such assays; details: source organism: Cowpox virus
HLA-A*68:02 [18] = test: as above; details: source organism: Cowpox virus
HLA-B*15:01 [19] = test: as above; details: source organism: Cowpox virus
HLA-B*15:09 = test: as above; details: source organism: Variola virus
HLA-B*38:01 = test: as above; details: source organism: Variola virus
HLA-B*39:01 = test: as above; details: source organism: Cowpox virus
HLA-A*01:01 [20] = test: IEDB peptide-MHC binding, purified MHC/competitive/fluorescence; filed as Kd, often an IC50 or EC50 that approximates it; ≥ and ≤ were set here for values at or beyond the usual limits of such assays; details: source organism: Vaccinia virus Copenhagen
HLA-B*27:05 [21] = test: as above; details: source organism: Vaccinia virus Copenhagen
HLA-B*48:01 [22] = test: as above; details: source organism: Vaccinia virus Copenhagen
HLA-A*24:02 [23] = test: as above
HLA-A*24:02 [24] = test: IEDB peptide-MHC binding, purified MHC/competitive/fluorescence; ≥ and ≤ were set here for values at or beyond the usual limits of such assays; details: source organism: Bos taurus
HLA-B*35:01 = test: as above; details: source organism: Bos taurus
[25] = source organism: Camelpox virus M-96
[26] = source organism: Vaccinia virus Copenhagen
[27] = source organism: Bacillus anthracis
[28] = source organism: Bacillus cereus NVH0597-99
[29] = source organism: Bacillus anthracis str. A0488
[30] = source organism: West Nile virus

Sequence: ALYSYASAK
Kd (HLA-A*01:01 [1]; [25]): ≥ 20 µM
Kd (HLA-A*03:01): 0.0395 µM
Kd (HLA-A*11:01 [2]): 0.0117 µM
Kd (HLA-A*31:01 [3]): 0.106 µM
Kd (HLA-A*69:01; [25]): ≥ 20 µM
Kd (HLA-B*07:02; [25]): ≥ 20 µM
Kd (HLA-B*40:01; [25]): ≥ 20 µM
Kd (HLA-B*46:01; [25]): ≥ 20 µM
Kd (HLA-B*48:01 [4]; [25]): ≥ 20 µM
Kd (HLA-B*57:01; [25]): ≥ 20 µM
Kd (HLA-B*58:01; [25]): ≥ 20 µM
Kd (HLA-A*02:01 [5]; [26]): 0.0563 µM
Kd (HLA-A*02:06): 0.271 µM
Kd (HLA-A*26:02 [6]): ≥ 20 µM
Kd (HLA-A*26:03 [7]): 0.494 µM
Kd (HLA-A*68:02 [8]; [26]): ≥ 20 µM
Kd (HLA-B*08:01): ≥ 20 µM
Kd (HLA-B*15:01 [9]): ≥ 20 µM
Kd (HLA-B*15:17 [10]): ≥ 20 µM
Kd (HLA-B*18:01): ≥ 20 µM

Sequence: RARRHLAAL
Kd (HLA-C*07:02; source organism: Mycobacterium tuberculosis C): 1.34 µM
Kd (HLA-A*32:07): 0.114 µM
Kd (HLA-B*15:42): ≥ 5 µM
Kd (HLA-B*27:20): 0.0074 µM
Kd (HLA-B*45:06): ≥ 5 µM
Kd (HLA-B*83:01): 5 µM

Sequence: REFEAQNVP
Kd (HLA-A*01:01 [1]; [27]): ≥ 20 µM
Kd (HLA-A*26:02 [11]): ≥ 20 µM
Kd (HLA-A*26:03 [12]; [28]): ≥ 20 µM
Kd (HLA-A*69:01; [27]): ≥ 20 µM
Kd (HLA-B*07:02; [27]): ≥ 20 µM
Kd (HLA-B*08:02): ≥ 20 µM
Kd (HLA-B*08:03; [28]): ≥ 20 µM
Kd (HLA-B*15:17 [13]; [27]): ≥ 20 µM
Kd (HLA-B*27:05 [14]): ≥ 20 µM
Kd (HLA-B*40:01; [27]): 0.294 µM
Kd (HLA-B*48:01 [4]; [27]): ≥ 20 µM
Kd (HLA-B*57:01; [27]): ≥ 20 µM
Kd (HLA-B*58:01; [27]): ≥ 20 µM
Kd (HLA-A*02:01 [5]; [29]): 0.145 µM
Kd (HLA-A*11:01 [15]): 0.497 µM
Kd (HLA-A*30:01; [29]): 0.521 µM
Kd (HLA-A*31:01 [16]): ≥ 20 µM
Kd (HLA-A*68:02 [8]; [29]): 2.19 µM

Sequence: RHDITGFIL
Kd (HLA-A*02:01 [17]): ≥ 20 µM
Kd (HLA-A*26:03 [12]; source organism: Variola virus): ≥ 20 µM
Kd (HLA-A*68:02 [18]): ≥ 20 µM
Kd (HLA-A*69:01; source organism: Cowpox virus): ≥ 20 µM
Kd (HLA-B*07:02; source organism: Cowpox virus): ≥ 20 µM
Kd (HLA-B*08:03; source organism: Variola virus): ≥ 20 µM
Kd (HLA-B*15:01 [19]): ≥ 20 µM
Kd (HLA-B*15:09): 2.78 µM
Kd (HLA-B*15:17 [13]; source organism: Cowpox virus): ≥ 20 µM
Kd (HLA-B*38:01): 0.033 µM
Kd (HLA-B*39:01): 0.0235 µM
Kd (HLA-B*40:01; source organism: Cowpox virus): 0.513 µM
Kd (HLA-B*46:01; source organism: Cowpox virus): ≥ 20 µM
Kd (HLA-B*57:01; source organism: Cowpox virus): ≥ 20 µM
Kd (HLA-B*58:01; source organism: Cowpox virus): ≥ 20 µM
Kd (HLA-A*01:01 [20]): ≥ 20 µM
Kd (HLA-A*30:01; [26]): ≥ 20 µM
Kd (HLA-B*18:01): ≥ 20 µM
Kd (HLA-B*27:05 [21]): ≥ 20 µM
Kd (HLA-B*48:01 [22]): 0.298 µM

Sequence: SYHDRRWCF
Kd (HLA-C*07:02; [30]): 0.017 µM
Kd (HLA-A*24:02 [23]; [30]): 0.0101 µM

Sequence: WYAPVALLF
Kd (HLA-A*24:02 [23]; [29]): ≤ 0.0001 µM

IC50 (HLA-A*24:02 [24]): 1.06 µM
IC50 (HLA-B*35:01): ≥ 20 µM
Sequence: YMMDDLEL
